Assay results as given in publication PMC12597282.

Target: E546N mutant human inducible NOS oxygenase/FMN (oxyFMN) construct (human) (UniProt P35228)
Assay: cross-linking; DSBU 250 uM with 5 uM iNOS oxyFMN (co-purified with CaM), 20 mM HEPES, 100 mM NaCl, 1 mM CaCl2, pH 7.5, 30 min, room temperature; SDS-PAGE, dimeric band digested in gel; LC-MS/MS on timsTOF (DDA-PASEF, then PRM-PASEF for quantitation), lysine-lysine cross-links only

UniProt P35228, sequence (P35228 71-723 E546N): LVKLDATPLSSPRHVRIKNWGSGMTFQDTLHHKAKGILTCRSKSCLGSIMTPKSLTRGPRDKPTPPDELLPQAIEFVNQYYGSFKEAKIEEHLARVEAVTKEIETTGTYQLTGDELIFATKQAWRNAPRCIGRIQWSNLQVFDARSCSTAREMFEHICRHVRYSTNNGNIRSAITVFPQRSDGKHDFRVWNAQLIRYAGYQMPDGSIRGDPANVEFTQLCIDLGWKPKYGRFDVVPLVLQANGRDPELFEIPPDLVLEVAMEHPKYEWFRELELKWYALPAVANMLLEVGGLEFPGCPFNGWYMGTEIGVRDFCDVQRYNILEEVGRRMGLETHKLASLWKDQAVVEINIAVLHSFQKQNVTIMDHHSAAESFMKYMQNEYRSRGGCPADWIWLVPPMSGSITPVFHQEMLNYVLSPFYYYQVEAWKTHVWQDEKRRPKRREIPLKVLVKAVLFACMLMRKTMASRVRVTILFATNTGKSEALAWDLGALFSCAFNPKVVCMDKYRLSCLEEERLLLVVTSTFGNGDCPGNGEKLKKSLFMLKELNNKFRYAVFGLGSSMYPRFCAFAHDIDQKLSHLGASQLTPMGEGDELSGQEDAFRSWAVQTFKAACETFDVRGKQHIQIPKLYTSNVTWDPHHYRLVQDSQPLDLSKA

log2 fold-change (E546N/wt) of the abundance of cross-link 75–516 CaM-helix (intra) (log2(E546N/wt)): -1.04
Substance: calmodulin (from UniProt P0DP23 1-149) (natural protein)
